From paper PMC4626798 (Scientific Reports, 2015)
Several values for one entry are separate records, joined by “and”; a condition that tells them apart may be missing. Equal values may be shown once.

B2: 6 × His-Hal3^PD (domain or fragment, S. cerevisiae, UniProt P36024 256-495, looked up)
chain: RLPQDDGKLHVLFGATGSLSVFKIKPMIKKLEEIYGRDRISIQVILTQSATQFFEQRYTKKIIKSSEKLNKMSQYESTPATPVTPTPGQCNMAQVVELPPHIQLWTDQDEWDAWKQRTDPVLHIELRRWADILVVAPLTANTLSKIALGLCDNLLTSVIRAWNPSYPILLAPSMVSSTFNSMMTKKQLQTIKEEMSWVTVFKPSEKVMDINGDIGLGGMMDWNEIVNKIVMKLGGYPKNN
notes: Hal3 (Sis2), S. cerevisiae, PPCDC domain (PD); expected MW with tag 29.1 kDa; also called PPCDC domain of Hal3; source: E. coli BL21 (DE3), purified (Ni2+ IMAC); alone from pET28 or co-expressed with Cab3^PD (pETDuet-1); not shown: His6, N-terminal, kept
B5: 6 × His-Vhs3^PD (domain or fragment, S. cerevisiae, UniProt Q08438 288-577, looked up)
chain: DDGKLHVLFGATGSLSVFKLKHMIRKLEEIYGRDKICIQVILTNSATKFFAMKYMRKNKKQHNSIDTSFNSTNSNAGNITGNKKKVASLEKFSIQKTSSNSAASQTNNKQEEEKQMASTTGFPSTLGGSRTYSNSSNVVSQHPQIELPAHIQFWTDQDEWDVWRQRTDPVLHIELRRWADILVVAPLTANTLAKIALGLCDNLLTSVIRAWNPTFPIFLAPSMGSGTFNSIMTKKHFRIIQEEMPWVTVFKPSEKVMGINGDIGLSGMMDANEIVGKIVVKLGGYPDVSA
notes: Vhs3, S. cerevisiae, PPCDC domain (PD), residues 288–577; Expected MW with tag 34.5 kDa; also called PPCDC domain of Vhs3; source: E. coli BL21 (DE3), purified (Ni2+ IMAC); alone from pET28a or co-expressed with Cab3^PD (pETDuet-1); not shown: His6, N-terminal, kept

Legend:
6 × His-Hal3^PD = molecular target: B2; assay: co-purification by Ni2+ IMAC after co-expression; untagged Cab3^PD co-expressed in E. coli with 6 × His-tagged Hal3^PD and/or Vhs3^PD (binary and ternary mixtures); Ni2+ IMAC, SDS-PAGE and densitometry; conditions: partners not purified
6 × His-Vhs3^PD = molecular target: B5; assay: as above; conditions: partners not purified
[1] = molecular target: the molecule itself; assay: SEC; purified PD proteins and co-purified mixtures on Superose 12, 50 mM phosphate pH 7.0, 150 mM NaCl, 0.4 mL/min
[2] = molecular target: the molecule itself; assay: cross-linking; purified PD protein treated with disuccinimydyl suberate (DSS) at 37 °C (15 min Hal3^PD, 40 min Vhs3^PD), SDS-PAGE on 8% gels
GST-Ppz1^Cter = molecular target: T1, GST-Ppz1^Cter (S. cerevisiae, UniProt P26570 345-692); assay: pull-down; GST-Ppz1^Cter (~6 μg) bound to glutathione agarose beads, incubated with increasing amounts of Hal3 (0.5-fold to 6-fold excess) for 1 h at 24 °C; washed with 50 mM Tris-HCl pH 7.5, 150 mM NaCl, 10% glycerol, 2 mM DTT; SDS-PAGE, Coomassie, densitometry; conditions: both partners purified
T1 construct: Ser/Thr protein phosphatase Ppz1, S. cerevisiae, carboxyl terminal domain, Ppz1 (Δ1–344), expressed from pGEX6P1-Ppz1^Cter; also called Ppz1 (Δ1–344); Ppz1 carboxyl terminal domain
T1 sequence (looked up): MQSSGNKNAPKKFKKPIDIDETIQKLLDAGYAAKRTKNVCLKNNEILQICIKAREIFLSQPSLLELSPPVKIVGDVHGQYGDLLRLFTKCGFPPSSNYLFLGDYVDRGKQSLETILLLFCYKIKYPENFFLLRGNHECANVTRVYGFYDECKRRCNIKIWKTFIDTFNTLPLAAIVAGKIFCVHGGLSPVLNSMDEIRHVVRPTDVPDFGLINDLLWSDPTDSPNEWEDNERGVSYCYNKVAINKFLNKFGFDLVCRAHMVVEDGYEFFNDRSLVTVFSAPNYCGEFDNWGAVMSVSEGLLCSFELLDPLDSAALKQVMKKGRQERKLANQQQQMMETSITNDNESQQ

6 × His-Ppz1^Cter = molecular target: T2, 6 × His-Ppz1^Cter (S. cerevisiae, UniProt P26570 345-692); assay: SEC; IMAC-purified Ppz1^Cter–Hal3 complex on Superdex 200 HR 10/30, 50 mM Tris-HCl pH 7.5, 270 mM NaCl, 2 mM DTT, 2 mM EDTA; fractions analysed by SDS-PAGE and densitometry; conditions: both partners purified
T2 construct: Ser/Thr protein phosphatase Ppz1, S. cerevisiae, carboxyl terminal domain (Ppz1^Cter, Δ1–344), first MCS of pETDuet-1; also called N-terminally 6 × His-tagged version of Ppz1^Cter; source: E. coli BL21 (DE3), co-expressed with Hal3 from pETDuet-1; purified as the complex (Ni2+ IMAC, SEC); not shown: His6, N-terminal, kept
T2 sequence (looked up): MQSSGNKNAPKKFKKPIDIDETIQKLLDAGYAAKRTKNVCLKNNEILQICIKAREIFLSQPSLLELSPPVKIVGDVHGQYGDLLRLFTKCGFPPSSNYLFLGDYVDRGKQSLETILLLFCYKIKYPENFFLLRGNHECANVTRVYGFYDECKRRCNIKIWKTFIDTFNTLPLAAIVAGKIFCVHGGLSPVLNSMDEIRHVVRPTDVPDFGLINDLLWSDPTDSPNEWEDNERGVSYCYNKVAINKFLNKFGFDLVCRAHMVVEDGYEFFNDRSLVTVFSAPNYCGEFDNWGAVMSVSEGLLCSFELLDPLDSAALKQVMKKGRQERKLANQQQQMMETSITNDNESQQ

B1: Cab3^PD (untagged) (domain or fragment, S. cerevisiae, UniProt P36076 305-508, looked up)
chain: DDKKFHILIGATGSVATIKVPLIIDKLFKIYGPEKISIQLIVTKPAEHFLKGLKMSTHVKIWREEDAWVFDAVNKNDTSLSLNLILHHELRKWADIFLIAPLSANTLAKLANGICNNLLTSVMRDWSPLTPVLIAPAMNTFMYINPMTKKHLTSLVQDYPFIQVLKPVEKVLICGDIGMGGMREWTDIVEIVRRRINEIRKARD
notes: Cab3 (previously Ykl088w), S. cerevisiae, PPCDC domain (PD), residues 305–508; Expected MW 23.3 kDa; could not be made on its own; also called PPCDC domain of Cab3; Ykl088w PD; source: E. coli BL21 (DE3), co-expressed from the second MCS of pETDuet-1 with 6 × His-Hal3^PD and/or 6 × His-Vhs3^PD; co-purified (Ni2+ IMAC)
ratio of Hal3^PD to Cab3^PD in the co-purified binary mixture (6 × His-Hal3^PD): ≥ 2 fold | ratio of Hal3^PD to Cab3^PD in the co-purified ternary mixture (6 × His-Hal3^PD): ~2 | ratio of Vhs3^PD to Cab3^PD in the co-purified binary mixture (6 × His-Vhs3^PD): ≥ 2 fold | ratio of Vhs3^PD to Cab3^PD in the co-purified ternary mixture (6 × His-Vhs3^PD): ~1

B2
stoichiometry N [1]: 6 and 12 | stoichiometry N [2]: 3

B3: Hal3 (full length, obtained from GST-Hal3 by PreScission protease treatment) (natural protein, S. cerevisiae, UniProt P36024 1-562, looked up)
chain: MTAVASTSGKQDADHNQSIECPRFSRGQKEILLDHEDAKGKDSIINSPVSGRQSISPTLSNATTTTTKSIMNATGTSGAVVSNTPEPGLKRVPAVTFSDLKQQQKQDSLTQLKNDSERTKSPNSNPAPVSNSIPGNHAVIPNHTNTSRTTQLSGSPLVNEMKDYDPKKKDSALKIVDTMKPDKIMATSTPISRENNKVTAKAPTSITLRKEDAQDQANNVSGQINVRSTPEETPVKQSVIPSIIPKRENSKNLDPRLPQDDGKLHVLFGATGSLSVFKIKPMIKKLEEIYGRDRISIQVILTQSATQFFEQRYTKKIIKSSEKLNKMSQYESTPATPVTPTPGQCNMAQVVELPPHIQLWTDQDEWDAWKQRTDPVLHIELRRWADILVVAPLTANTLSKIALGLCDNLLTSVIRAWNPSYPILLAPSMVSSTFNSMMTKKQLQTIKEEMSWVTVFKPSEKVMDINGDIGLGGMMDWNEIVNKIVMKLGGYPKNNEEEDDDEDEEEDDDEEEDTEDKNENNNDDDDDDDDDDDDDDDDDDDDDDDDEDEDEAETPGIIDKHQ
notes: Hal3 (Sis2), S. cerevisiae, the entire protein, expressed from pGEX6P1-Hal3; also called Sis2; recombinant Hal3; source: E. coli BL21 (DE3), GST-Hal3 purified and digested with PreScission protease
maximal ratio of bound Hal3 to GST-Ppz1^Cter (GST-Ppz1^Cter): ~0.5

B4: Hal3 (untagged, entire, co-expressed from pETDuet-1) (natural protein, S. cerevisiae, UniProt P36024 1-562, looked up)
chain: MTAVASTSGKQDADHNQSIECPRFSRGQKEILLDHEDAKGKDSIINSPVSGRQSISPTLSNATTTTTKSIMNATGTSGAVVSNTPEPGLKRVPAVTFSDLKQQQKQDSLTQLKNDSERTKSPNSNPAPVSNSIPGNHAVIPNHTNTSRTTQLSGSPLVNEMKDYDPKKKDSALKIVDTMKPDKIMATSTPISRENNKVTAKAPTSITLRKEDAQDQANNVSGQINVRSTPEETPVKQSVIPSIIPKRENSKNLDPRLPQDDGKLHVLFGATGSLSVFKIKPMIKKLEEIYGRDRISIQVILTQSATQFFEQRYTKKIIKSSEKLNKMSQYESTPATPVTPTPGQCNMAQVVELPPHIQLWTDQDEWDAWKQRTDPVLHIELRRWADILVVAPLTANTLSKIALGLCDNLLTSVIRAWNPSYPILLAPSMVSSTFNSMMTKKQLQTIKEEMSWVTVFKPSEKVMDINGDIGLGGMMDWNEIVNKIVMKLGGYPKNNEEEDDDEDEEEDDDEEEDTEDKNENNNDDDDDDDDDDDDDDDDDDDDDDDDEDEDEAETPGIIDKHQ
notes: Hal3 (Sis2), S. cerevisiae, the entire Hal3, second MCS of pETDuet-1; also called Sis2; untagged version of Hal3; source: E. coli BL21 (DE3), co-expressed with 6 × His-Ppz1^Cter from pETDuet-1; purified as the complex (Ni2+ IMAC, SEC)
stoichiometry N (6 × His-Ppz1^Cter): ~1

B5
stoichiometry N [2]: 3
